Measurements from patent publication US20220226425A1, “METHOD OF TREATING MELANOCORTIN-4 RECEPTOR PATHWAY-ASSOCIATED DISORDERS” (RHYTHM PHARMACEUTICALS, INC., priority 2015, published 2022).

Biological target: melanocortin 5 receptor (human) (UniProt P33032)
Assay: cell-based or functional assay

Sequence of melanocortin 5 receptor (human) (P33032 whole entry): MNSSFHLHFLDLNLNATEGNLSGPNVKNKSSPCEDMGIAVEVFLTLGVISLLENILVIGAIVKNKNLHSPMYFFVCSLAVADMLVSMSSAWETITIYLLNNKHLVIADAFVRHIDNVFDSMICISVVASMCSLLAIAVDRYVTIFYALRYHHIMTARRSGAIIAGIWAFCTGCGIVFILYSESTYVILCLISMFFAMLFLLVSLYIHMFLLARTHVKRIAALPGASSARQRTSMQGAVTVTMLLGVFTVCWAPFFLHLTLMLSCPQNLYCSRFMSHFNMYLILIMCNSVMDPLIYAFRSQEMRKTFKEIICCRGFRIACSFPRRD

EC-50 (nM), cAMP accumulation: 1680 nM
Substance: RM-493 (peptide)
